Source: article doi:10.1101/2023.06.05.543739

Tests used:
Assay in all cases: ITC
PER2 1132-1252 = PER2 1132-1252 (UniProt O54943)
[1] = target: hRbBP5 (Isoform 2) (human)
PER1 1013-1291 = PER1 1013-1291 (UniProt O35973)
Sequence of UniProt O35973 (O35973 1013-1291): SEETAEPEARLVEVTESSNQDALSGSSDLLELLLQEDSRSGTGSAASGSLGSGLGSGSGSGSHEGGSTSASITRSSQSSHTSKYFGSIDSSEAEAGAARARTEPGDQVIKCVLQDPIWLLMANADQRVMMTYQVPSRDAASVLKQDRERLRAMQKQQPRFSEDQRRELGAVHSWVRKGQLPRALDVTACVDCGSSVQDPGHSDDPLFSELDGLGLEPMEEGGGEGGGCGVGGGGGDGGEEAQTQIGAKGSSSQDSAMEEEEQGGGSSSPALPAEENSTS

Sequence of UniProt O54943 (O54943 1132-1252): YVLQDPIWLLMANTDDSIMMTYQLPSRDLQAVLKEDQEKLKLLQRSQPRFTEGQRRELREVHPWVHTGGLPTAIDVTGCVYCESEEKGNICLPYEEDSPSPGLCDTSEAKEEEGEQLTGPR

**Q.** “WDR5 23-334 (from UniProt P61964 23-334) (domain or fragment; other documents disagree on this pair)” was tested. Which Kd (PER2 1132-1252) did it give?
**A.** 50 µM

**Q.** “WDR5 23-334 N225A (from UniProt P61964 23-334) (domain or fragment)” was tested. Which Kd [1] did it give?
**A.** 71 µM

**Q.** “WDR5 23-334 N225A (from UniProt P61964 23-334) (domain or fragment; other documents disagree on this pair)” was tested. Which Kd (PER1 1013-1291) did it give?
**A.** 7 µM
